# According to patent US20050249739A1:
# Biological target: S protein of SARS-CoV (Urbani strain) on virus (SARS-CoV (Urbani strain)) (UniProt P59594)
# Experiment: cell-based or functional assay
substance,measurement,value
80R IgG1 (antibody),micro-neutralization assay: fold more effective than 80R scFv on a molar basis,20 fold
